Results: patent US20030069395A1 (DYAX, published 2003)
Bridges are numbered along the chain shown (N, C = ends). Where no end group is shown, it is not given here. [ ]: non-standard residue; d: D form. fluorescein = fluorescein label; Ahx = NCCCCCC(=O)O

Target: T1, human serum albumin (HSA) (human, UniProt P02768 25-609)
T1 construct: also called caprylate-biotinylated-HSA
Experiment: fluorescence anisotropy; pH 6.2, 0.14 M NaCl, no caprylate
Method: (§1) Affinity determinations were made by first labeling polypeptides on the C-terminal end with NHS-fluorescein. Fluorescence anisotropy measurements were performed in 384-well microplates in a volume of 10 μl in binding buffer using a Tecan Polarion fluorescence polarization plate reader. The concentration of fluorescein labeled peptide was held constant (20 nM), and the concentration of HSA was varied. For pH 6.2, 7.1, and 7.4 binding conditions, a 3 mM phosphate, 0.01% Tween-20 buffer was used. For pH 9.1 binding conditions, a 3 mM sodium bicarbonate buffer, 0.01% Tween-20 nonionic detergent buffer was used. Once NaCl was added to any of these buffers, their pH was adjusted again to achieve the original pH. The binding mixtures were equilibrated for 10 minutes in the microplate at 30° C. prior to performing the measurement. The observed change in anisotropy was fit to the equation below via nonlinear regression to obtain the apparent KD. This equation assumes that the peptide and HSA form a reversible complex with 1:1 stoichiometry.

| Binder | Kd [µM] |
| --- | --- |
| Ac-AEGTGSVAWCTIFLCLDVAPEGGGK-NH2 (not fully specified (bridges); printed as Ac-AEGTGSVAWCTIFLCLDVAPEGGGK-NH2; also: C-terminal Lys: fluorescein or coupled to NHS-Sepharose, Putative disulfide between the two Cys) [DX-232, Ac-AEGTGSVAWCTIFLCLDVAPEGGGK-NH2] | 0.5 |
| Ac-AEGTGDDWDCVTDWANRHQHCWALDPE[Ahx]K(fluorescein)-NH2 (disulfide 10-21) [DX-317, Ac-AEGTGDDWDCVTDWANRHQHCWALDPE-X-K-NH2] | > 200 |
| Ac-AEGTGSFKICDQWFCLMPAPE[Ahx]K(fluorescein)-NH2 (disulfide 10-15) [DX-295, Ac-AEGTGSFKICDQWFCLMPAPE-X-K-NH2] | > 100 |

Target: T1, human serum albumin (HSA)
Experiment: phage ELISA on immobilised caprylate-HSA, HRP anti-M13 antibody
Method: Phage were selected as described below from a pool of three phage libraries (TN6/6, TN10/9, TN12/1). Phage were tested for ability to bind to HSA an in ELISA format using caprylate-bound HSA, which had been passively immobilized on the surface of wells of a microtiter assay plate. Binding of phage to immobilized HSA was detected by adding HRP-conjugated anti-M13 antibody. Following addition of TMB substrate, the absorbance at 620 nm was read with an automated plate reader. Phage bound to HSA is shown by diagonal striped bars; control wells (no HSA) is shown by open bars.
For analysis of caprylate-HSA as a target, Immulon 2HB plates were prepared by the addition of 340 μl/well of caprylate-HSA at 5.6 μg/ml. The plates were incubated overnight at 4° C. The HSA-coated plates were then washed robotically with PBSCT six times (BioTek 404, BioTek Instruments). To account for plate binders, empty plates were also washed. An equal volume of each phage clone isolate was added to a plate well containing 70 μl PBSCT in both the target plate and the control plate. Plates were incubated for one hour at room temperature. The plates were washed seven times with PBSCT using the BioTek 404 apparatus. A 1:10,000 dilution of Pharmacia HRP-αM13 antibody conjugate in PBSCT was added to each well, at 100 μl/well. Plates were incubated for one hour. After incubation, plates were washed six times with PBSCT using the BioTek 404 apparatus. Following the wash, 100 μl of a 1:1 solution of the two-component TMB substrate solution was added to each well, and the plates incubated for 30 minutes. The plates were then read at 620 nm with an automatic BioTek plate reader.

| Binder | binding result |
| --- | --- |
| FWFCDRIAWYPQHLCEFLD (not fully specified (bridges); cysteine pairing not given here, Whole phage in the ELISA; not shown: protein III of M13 phage; the display peptide stands at its amino terminus) [phage isolate displaying FWFCDRIAWYPQHLCEFLD (SEQ ID NO: 246)] | binds |
| WKVCDHFFCLSP (not fully specified (bridges); cysteine pairing not given here, Whole phage in the ELISA; not shown: protein III of M13 phage; the display peptide stands at its amino terminus) [phage isolate displaying WKVCDHFFCLSP (SEQ ID NO: 242)] | binds |
| FRNCEPWMLRFGCNPR (not fully specified (bridges); cysteine pairing not given here, Whole phage in the ELISA; not shown: protein III of M13 phage; the display peptide stands at its amino terminus) [phage isolate displaying FRNCEPWMLRFGCNPR (SEQ ID NO: 244)] | binds |
| RNMCKFSWIRSPAFCARADP (not fully specified (bridges); cysteine pairing not given here, Whole phage in the ELISA; not shown: protein III of M13 phage; the display peptide stands at its amino terminus) [phage isolate displaying RNMCKFSWIRSPAFCARADP (SEQ ID NO: 251)] | binds |
| DWDCVTRWANRDQQCWAL (not fully specified (bridges); cysteine pairing not given here, Whole phage in the ELISA; not shown: protein III of M13 phage; the display peptide stands at its amino terminus) [phage isolate displaying DWDCVTRWANRDQQCWAL (SEQ ID NO: 248)] | binds |
| FKICDQWFCLMP (not fully specified (bridges); cysteine pairing not given here, Whole phage in the ELISA; not shown: protein III of M13 phage; the display peptide stands at its amino terminus) [phage isolate displaying FKICDQWFCLMP (SEQ ID NO: 240)] | binds |
| NHGCWHFSCIWD (not fully specified (bridges); cysteine pairing not given here, Whole phage in the ELISA; not shown: protein III of M13 phage; the display peptide stands at its amino terminus) [phage isolate displaying NHGCWHFSCIWD (SEQ ID NO: 243)] | binds |
| HVGCNNALCMQY (not fully specified (bridges); cysteine pairing not given here, Whole phage in the ELISA; not shown: protein III of M13 phage; the display peptide stands at its amino terminus) [phage isolate displaying HVGCNNALCMQY (SEQ ID NO: 241)] | binds |
| VAWCTIFLCLDV (not fully specified (bridges); cysteine pairing not given here, Whole phage in the ELISA; the constant phage residues that flank the display peptide are not spelled out for the phage construct; not shown: protein III of M13 phage; the display peptide stands at its amino terminus) [phage isolate displaying VAWCTIFLCLDV (SEQ ID NO: 239)] | binds |
| ADFCEGKDMIDWVYCRLY (not fully specified (bridges); cysteine pairing not given here, Whole phage in the ELISA; not shown: protein III of M13 phage; the display peptide stands at its amino terminus) [phage isolate displaying ADFCEGKDMIDWVYCRLY (SEQ ID NO: 245)] | binds |
| DWDCVTDWANRHQHCWAL (not fully specified (bridges); cysteine pairing not given here, Whole phage in the ELISA; not shown: protein III of M13 phage; the display peptide stands at its amino terminus) [phage isolate displaying DWDCVTDWANRHQHCWAL (SEQ ID NO: 249)] | binds |
| DWQCVKDWANRRRGCMAD (not fully specified (bridges); cysteine pairing not given here, Whole phage in the ELISA; not shown: protein III of M13 phage; the display peptide stands at its amino terminus) [phage isolate displaying DWQCVKDWANRRRGCMAD (SEQ ID NO: 250)] | binds |

Target: T1, human serum albumin (HSA)
Experiment: fluorescence anisotropy, fluorescein-labelled peptide, PBS
Method: as §1
Selected HSA binding polypeptides from these additional library selections were synthesized, fluorescein-labeled as in Example 1, and tested to determine an apparent KD for HSA in PBS. The polypeptides were synthesized to include an acetylated N-terminal dipeptide and a C-terminal dipeptide corresponding to the constant flanking amino acids immediately adjacent the display peptide as expressed on phage in the respective phage display libraries. The polypeptides were also synthesized with a C-terminal -Gly-Gly-Gly-Lys (SEQ ID NO: 24). The terminal Lys residue was amidated.

| Binder | Kd [µM] |
| --- | --- |
| Ac-AGWTTCHIYDWFCSSSGTGGGK(fluorescein)-NH2 (not fully specified (bridges); printed as Ac-AGWTTCHIYDWFCSSSGTGGGK-NH2; cysteine pairing not given here) [DX-1175, Ac-AGWTTCHIYDWFCSSSGTGGGK-NH2] | 30 |
| Ac-GDRNMCKFSWIRSPAFCARADPGGGK(fluorescein)-NH2 (disulfide 6-17 (inferred)) [DX-321 of Table 9, Ac-GDRNMCKFSWIRSPAFCARADPGGGK-NH2] | > 10 |
| Ac-AGKWYCAWDPLVCEIFGTGGGK(fluorescein)-NH2 (disulfide 6-13 (inferred)) [DX-1173, Ac-AGKWYCAWDPLVCEIFGTGGGK-NH2] | > 10 |
| Ac-GDNDGCTDTNWSWMFDCPPLDPGGGK(fluorescein)-NH2 (disulfide 6-17 (inferred)) [DX-1165, Ac-GDNDGCTDTNWSWMFDCPPLDPGGGK-NH2] | > 10 |
| Ac-AGLEYCFYQWWGCPHAGTGGGK(fluorescein)-NH2 (not fully specified (bridges); printed as Ac-AGLEYCFYQWWGCPHAGTGGGK-NH2; cysteine pairing not given here) [DX-1177, Ac-AGLEYCFYQWWGCPHAGTGGGK-NH2] | 153 |
| Ac-GSLWDCWLYDCEGNAPGGGK(fluorescein)-NH2 (disulfide 6-11 (inferred)) [DX-1093, Ac-GSLWDCWLYDCEGNAPGGGK-NH2] | > 10 |
| Ac-GDDSMCITWPFKRPWPCANDPGGGK(fluorescein)-NH2 (not fully specified (bridges); printed as Ac-GDDSMCITWPFKRPWPCANDPGGGK-NH2; cysteine pairing not given here) [DX-1163, Ac-GDDSMCITWPFKRPWPCANDPGGGK-NH2] | 42 |
| Ac-AGYQFCTWDPIFCGWHGTGGGK(fluorescein)-NH2 (not fully specified (bridges); printed as Ac-AGYQFCTWDPIFCGWHGTGGGK-NH2; cysteine pairing not given here) [DX-1179, Ac-AGYQFCTWDPIFCGWHGTGGGK-NH2] | 185 |
| Ac-GDSFCVTYIGTWETVCKRSDPGGGK(fluorescein)-NH2 (disulfide 5-16 (inferred)) [DX-1089, Ac-GDSFCVTYIGTWETVCKRSDPGGGK-NH2] | > 10 |
| Ac-GDLRSCFTYYPFTTFSCSPADPGGGK(fluorescein)-NH2 (disulfide 6-17 (inferred)) [DX-1091, Ac-GDLRSCFTYYPFTTFSCSPADPGGGK-NH2] | > 10 |
| Ac-GDFSLCWIVDEDGTKWCLPDPGGGK(fluorescein)-NH2 (disulfide 6-17 (inferred)) [DX-997, Ac-GDFSLCWIVDEDGTKWCLPDPGGGK-NH2] | > 10 |
| Ac-GDSPYCKIALFQHFEVCAADDPGGGK(fluorescein)-NH2 (disulfide 6-17 (inferred)) [DX-1167, Ac-GDSPYCKIALFQHFEVCAADDPGGGK-NH2] | > 10 |
| Ac-GSRSFCMDWPNHRDCDYSAPGGGK(fluorescein)-NH2 (not fully specified (bridges); printed as Ac-GSRSFCMDWPNHRDCDYSAPGGGK-NH2; cysteine pairing not given here) [DX-1171, Ac-GSRSFCMDWPNHRDCDYSAPGGGK-NH2] | 165 |
| Ac-GDLRDCQTTWPFTMMQCPNNDPGGGK(fluorescein)-NH2 (not fully specified (bridges); printed as Ac-GDLRDCQTTWPFTMMQCPNNDPGGGK-NH2; cysteine pairing not given here) [DX-1002, Ac-GDLRDCQTTWPFTMMQCPNNDPGGGK-NH2] | 4 |
